How the values were obtained:
ovalbumin = ovalbumin (UniProt P01012 P01012:2-386); test: negative control, little signal; nanowire fluorescence beacon; conditions: label: TAMRA 3'; no hairpin
Procedure: Probe assembly was performed as for standard molecular beacons. The assay was performed by diluted the thrombin protein with Tris-HCl buffer to attain desired concentration. Then 50 μl thrombin protein solution was mixed with 3 μl nanowire assembled aptamer probe in a microfuge tube and incubated for 30 min, with rotation at room temperature. The contents were centrifuged, washed with 0.1% Tween-20/PBS once and fluorescence images acquired using fluorescence microscope described above.
As expected no fluorescence was observed, due to the fluorescence quenching of the TAMRA by the nanowire. However, when the thrombin protein was added to the reaction by incubating 10 μg/ml thrombin with 3 μl nanowire-Apt1 assembled probes for 30 min, fluorescence was restored. An investigation into the effect of the hairpin in the beacons was carried out. […] This sequence was therefore used for subsequent experiments. […] When this experiment was repeated in 50% serum, the detection limit was again approximately 50 nM (FIG. 15B). These are very encouraging results. Finally, it is important to understand the specificity of the assay, in addition to the sensitivity. THR Apt 3 assembled nanowires were incubated with a pair of homologous proteins, α Thrombin and β Thrombin, and with ovalbumin as a negative control, and a blank (labeled control). […]

alpha-thrombin [1] = target: T1, alpha-thrombin (UniProt P00734;P00734 P00734:328-363,P00734:364-622); test: nanowire fluorescence beacon; highest signal to noise; thrombin detected at about 50 nM in buffer and in 50% serum (detection limit, not Kd); greatest signal wi
alpha-thrombin [2] = target: T1, alpha-thrombin; test: fluorescence restored on nanowire beacon with 10 ug/ml thrombin (form not specified), Tris-HCl, 30 min, room temperature

Sequence of ovalbumin (P01012 2-386, one chain of several): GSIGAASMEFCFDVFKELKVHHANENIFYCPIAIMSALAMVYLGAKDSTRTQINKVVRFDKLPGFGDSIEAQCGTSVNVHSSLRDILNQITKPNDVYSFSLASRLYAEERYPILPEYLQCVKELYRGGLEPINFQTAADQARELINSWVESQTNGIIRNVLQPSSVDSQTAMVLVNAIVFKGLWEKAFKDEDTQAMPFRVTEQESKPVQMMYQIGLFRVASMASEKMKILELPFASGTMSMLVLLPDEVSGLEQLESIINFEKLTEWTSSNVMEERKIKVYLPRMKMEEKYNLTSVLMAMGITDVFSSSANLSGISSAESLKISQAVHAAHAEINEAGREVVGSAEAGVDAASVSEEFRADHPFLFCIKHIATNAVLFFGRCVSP

Binder | binding result (ovalbumin) | binding result (alpha-thrombin [1]) | binding result (alpha-thrombin [2])
TGGTTGGTGTGGTTGG (ssDNA, 5' thiol-(CH2)6, 3' (CH2)7-TAMRA, assembled on Au/Ag nanowires) [THR Apt3] | no binding | binds | 
CCAACGGTTGGTGTGGTTGG (ssDNA, 5' thiol-(CH2)6, 3' (CH2)7-TAMRA, assembled on Au/Ag nanowires) [THR Apt1] |  |  | binds

From patent US20090298197, “SERS-BASED METHODS FOR DETECTION OF BIOAGENTS” (OXONICA MATERIALS INC., published 2009)
